The supplement of paper PMC10065799, “High-throughput profiling of sequence recognition by tyrosine kinases and SH2 domains using bacterial peptide display” (eLife, 2023)

Key:
[1] = target: EPHB1 (UniProt P54762); assay: phosphorylation enrichment, bacterial display (enrichment ratio); higher = better substrate or ligand; peptides without Tyr show the background
[2] = tested on: Fer (mouse); assay: as above
[3] = tested on: AncSZ; assay: as above
[4] = target: Fes (UniProt P07332); assay: as above
Sequence of Fes (P07332 whole entry, looked up): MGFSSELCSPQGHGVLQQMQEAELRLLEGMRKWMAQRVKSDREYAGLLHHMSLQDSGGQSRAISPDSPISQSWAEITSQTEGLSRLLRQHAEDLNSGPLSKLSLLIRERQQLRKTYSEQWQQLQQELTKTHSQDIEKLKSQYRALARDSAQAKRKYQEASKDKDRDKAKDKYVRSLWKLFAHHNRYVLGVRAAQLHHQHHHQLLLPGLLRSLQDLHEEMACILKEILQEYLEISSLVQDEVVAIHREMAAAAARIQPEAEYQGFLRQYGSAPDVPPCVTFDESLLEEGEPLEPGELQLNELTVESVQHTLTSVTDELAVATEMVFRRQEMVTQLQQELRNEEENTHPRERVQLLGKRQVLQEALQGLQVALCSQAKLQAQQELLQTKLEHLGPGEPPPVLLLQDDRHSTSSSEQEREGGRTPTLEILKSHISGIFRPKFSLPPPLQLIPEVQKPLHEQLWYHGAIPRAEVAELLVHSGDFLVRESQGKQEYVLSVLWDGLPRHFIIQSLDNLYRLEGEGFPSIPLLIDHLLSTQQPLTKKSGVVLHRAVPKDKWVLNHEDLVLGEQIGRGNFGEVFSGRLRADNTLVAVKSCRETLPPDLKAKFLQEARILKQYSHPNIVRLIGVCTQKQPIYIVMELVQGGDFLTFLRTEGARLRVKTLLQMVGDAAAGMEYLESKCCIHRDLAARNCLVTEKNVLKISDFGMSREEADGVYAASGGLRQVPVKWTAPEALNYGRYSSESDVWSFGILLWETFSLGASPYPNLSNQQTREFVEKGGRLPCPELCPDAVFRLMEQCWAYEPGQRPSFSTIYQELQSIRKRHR

[5] = target: MERTK (UniProt Q12866); assay: as above
Sequence of MERTK (Q12866 whole entry, looked up): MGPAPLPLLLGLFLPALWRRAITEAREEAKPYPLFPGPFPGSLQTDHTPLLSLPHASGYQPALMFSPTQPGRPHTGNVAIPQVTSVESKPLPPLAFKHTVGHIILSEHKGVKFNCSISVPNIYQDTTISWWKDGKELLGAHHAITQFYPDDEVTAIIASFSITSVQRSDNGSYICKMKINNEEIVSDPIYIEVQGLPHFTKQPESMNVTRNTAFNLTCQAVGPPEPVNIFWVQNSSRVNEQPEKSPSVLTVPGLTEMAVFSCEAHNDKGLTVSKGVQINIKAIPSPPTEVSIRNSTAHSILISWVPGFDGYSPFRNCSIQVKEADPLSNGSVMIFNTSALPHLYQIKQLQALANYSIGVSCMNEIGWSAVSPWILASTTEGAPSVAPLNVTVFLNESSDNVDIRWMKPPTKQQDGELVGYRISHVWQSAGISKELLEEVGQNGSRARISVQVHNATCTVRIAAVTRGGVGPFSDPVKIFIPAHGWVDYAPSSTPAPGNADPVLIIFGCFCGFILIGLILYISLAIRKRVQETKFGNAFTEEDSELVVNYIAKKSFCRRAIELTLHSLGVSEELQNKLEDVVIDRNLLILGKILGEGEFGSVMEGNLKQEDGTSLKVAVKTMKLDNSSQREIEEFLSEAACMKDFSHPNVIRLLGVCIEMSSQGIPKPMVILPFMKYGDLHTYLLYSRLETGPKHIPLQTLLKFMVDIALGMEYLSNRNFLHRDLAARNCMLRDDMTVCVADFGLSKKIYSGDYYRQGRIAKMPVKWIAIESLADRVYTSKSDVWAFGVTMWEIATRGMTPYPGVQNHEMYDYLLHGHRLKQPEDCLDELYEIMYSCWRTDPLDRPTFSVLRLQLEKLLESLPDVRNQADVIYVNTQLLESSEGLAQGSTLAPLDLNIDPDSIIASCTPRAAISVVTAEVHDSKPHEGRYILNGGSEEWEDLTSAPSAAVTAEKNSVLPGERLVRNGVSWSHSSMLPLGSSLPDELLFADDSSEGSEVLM

[6] = target: FGFR3 (UniProt P22607); assay: as above
[7] = target: Fyn (UniProt P06241); assay: as above
Sequence of Fyn (P06241 whole entry, looked up): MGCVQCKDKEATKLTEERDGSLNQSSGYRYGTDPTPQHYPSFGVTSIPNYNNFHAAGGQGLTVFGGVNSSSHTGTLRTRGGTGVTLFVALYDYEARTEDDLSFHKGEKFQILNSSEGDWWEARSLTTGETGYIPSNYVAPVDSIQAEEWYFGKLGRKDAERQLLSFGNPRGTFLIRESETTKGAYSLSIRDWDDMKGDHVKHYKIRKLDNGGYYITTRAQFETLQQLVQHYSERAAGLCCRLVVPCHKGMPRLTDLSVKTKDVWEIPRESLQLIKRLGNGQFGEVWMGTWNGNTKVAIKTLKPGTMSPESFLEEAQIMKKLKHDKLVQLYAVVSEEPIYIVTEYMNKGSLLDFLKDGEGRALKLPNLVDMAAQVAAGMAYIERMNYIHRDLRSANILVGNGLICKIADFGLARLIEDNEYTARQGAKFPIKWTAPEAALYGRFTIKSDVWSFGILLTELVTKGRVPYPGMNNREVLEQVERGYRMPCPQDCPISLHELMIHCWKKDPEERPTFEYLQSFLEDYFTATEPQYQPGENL

[8] = tested on: c-Abl (mouse); assay: as above
[9] = target: Hck (UniProt P08631); assay: as above
Sequence of Hck (P08631 whole entry, looked up): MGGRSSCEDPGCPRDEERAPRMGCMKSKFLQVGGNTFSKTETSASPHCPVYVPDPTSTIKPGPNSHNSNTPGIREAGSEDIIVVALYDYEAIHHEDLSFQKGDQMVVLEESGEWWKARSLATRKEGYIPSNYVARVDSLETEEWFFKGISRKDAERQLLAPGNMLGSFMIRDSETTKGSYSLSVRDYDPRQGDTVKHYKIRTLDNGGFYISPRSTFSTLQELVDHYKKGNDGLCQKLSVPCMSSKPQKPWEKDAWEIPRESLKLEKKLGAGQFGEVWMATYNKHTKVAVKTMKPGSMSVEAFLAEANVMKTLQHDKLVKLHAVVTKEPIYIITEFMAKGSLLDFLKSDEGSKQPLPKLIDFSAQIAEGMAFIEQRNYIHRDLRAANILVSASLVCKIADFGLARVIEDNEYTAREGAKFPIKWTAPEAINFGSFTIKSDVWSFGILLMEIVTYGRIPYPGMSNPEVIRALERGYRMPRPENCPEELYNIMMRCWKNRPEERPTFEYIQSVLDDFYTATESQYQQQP

[10] = target: Jak2 (UniProt O60674); assay: as above
Sequence of Jak2 (O60674 whole entry, looked up): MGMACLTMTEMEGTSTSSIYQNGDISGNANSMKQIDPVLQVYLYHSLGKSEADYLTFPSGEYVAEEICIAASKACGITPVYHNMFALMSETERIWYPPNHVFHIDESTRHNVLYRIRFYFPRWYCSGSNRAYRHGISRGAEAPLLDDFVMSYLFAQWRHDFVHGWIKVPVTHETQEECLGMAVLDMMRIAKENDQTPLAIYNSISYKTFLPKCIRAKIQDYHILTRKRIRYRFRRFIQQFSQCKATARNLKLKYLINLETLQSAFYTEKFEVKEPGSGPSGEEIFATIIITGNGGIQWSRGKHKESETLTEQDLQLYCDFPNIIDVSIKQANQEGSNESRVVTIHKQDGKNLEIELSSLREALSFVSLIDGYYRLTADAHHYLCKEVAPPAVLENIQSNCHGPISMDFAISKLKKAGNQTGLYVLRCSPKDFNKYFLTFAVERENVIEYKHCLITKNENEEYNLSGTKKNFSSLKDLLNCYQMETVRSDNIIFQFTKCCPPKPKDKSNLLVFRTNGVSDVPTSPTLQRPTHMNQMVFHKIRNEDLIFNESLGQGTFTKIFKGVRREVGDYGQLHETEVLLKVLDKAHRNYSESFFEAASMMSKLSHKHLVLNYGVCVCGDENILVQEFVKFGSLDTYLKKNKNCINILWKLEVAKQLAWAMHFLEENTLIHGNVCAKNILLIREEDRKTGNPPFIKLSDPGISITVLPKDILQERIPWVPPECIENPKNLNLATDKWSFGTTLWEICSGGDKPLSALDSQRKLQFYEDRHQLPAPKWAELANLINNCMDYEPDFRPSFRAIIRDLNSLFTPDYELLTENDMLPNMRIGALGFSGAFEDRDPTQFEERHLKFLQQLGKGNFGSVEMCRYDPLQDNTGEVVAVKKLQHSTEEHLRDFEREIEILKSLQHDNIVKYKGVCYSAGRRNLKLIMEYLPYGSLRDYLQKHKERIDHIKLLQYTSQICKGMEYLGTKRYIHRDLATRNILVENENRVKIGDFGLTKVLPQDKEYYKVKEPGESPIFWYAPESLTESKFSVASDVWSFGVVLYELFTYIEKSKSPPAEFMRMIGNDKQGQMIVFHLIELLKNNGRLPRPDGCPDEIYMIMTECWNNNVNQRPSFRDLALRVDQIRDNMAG

[11] = target: EPHB2 (UniProt P29323); assay: as above
[12] = target: FGFR1 (UniProt P11362); assay: as above
Sequence of FGFR1 (P11362 whole entry, looked up): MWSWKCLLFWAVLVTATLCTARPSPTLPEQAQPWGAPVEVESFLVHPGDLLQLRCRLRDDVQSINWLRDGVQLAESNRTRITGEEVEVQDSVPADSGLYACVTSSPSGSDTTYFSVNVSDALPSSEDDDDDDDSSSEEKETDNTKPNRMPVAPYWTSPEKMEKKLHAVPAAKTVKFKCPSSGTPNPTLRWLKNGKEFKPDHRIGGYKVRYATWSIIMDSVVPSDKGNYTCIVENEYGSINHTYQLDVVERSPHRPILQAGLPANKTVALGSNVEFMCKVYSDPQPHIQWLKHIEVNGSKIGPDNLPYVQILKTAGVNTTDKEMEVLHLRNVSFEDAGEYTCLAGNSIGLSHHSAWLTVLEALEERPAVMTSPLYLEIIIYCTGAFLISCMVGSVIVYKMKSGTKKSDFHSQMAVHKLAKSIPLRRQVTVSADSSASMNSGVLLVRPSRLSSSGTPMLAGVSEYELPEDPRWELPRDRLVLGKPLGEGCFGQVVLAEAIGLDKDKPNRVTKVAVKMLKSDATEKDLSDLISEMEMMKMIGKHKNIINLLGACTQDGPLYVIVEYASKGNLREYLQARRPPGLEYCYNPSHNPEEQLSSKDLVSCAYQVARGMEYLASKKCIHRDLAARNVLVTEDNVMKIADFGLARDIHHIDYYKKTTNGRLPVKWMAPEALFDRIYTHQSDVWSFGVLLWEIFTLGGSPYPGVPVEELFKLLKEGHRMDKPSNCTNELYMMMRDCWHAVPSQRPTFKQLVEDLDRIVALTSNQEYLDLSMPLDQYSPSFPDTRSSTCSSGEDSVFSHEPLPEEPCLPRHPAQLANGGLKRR

[13] = tested on: c-Src; assay: as above
[14] = target: Grb2 SH2 (UniProt P62993); assay: SH2 binding enrichment of the phosphorylated peptide, bacterial display (enrichment ratio); higher = better substrate or ligand; peptides without Tyr show the background
[15] = target: c-Src SH2; assay: as above
[16] = target: SHP2-C SH2; assay: as above
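Wherever SH2 binding enrichment of the phosphorylated peptide, bacterial display is given: peptide library displayed on the E. coli surface as eCPX fusions, selected cells deep-sequenced, score is each peptide's frequency after selection divided by its frequency in the input.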
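Wherever phosphorylation enrichment, bacterial display is given: 11-residue human phosphosite peptides and single-mutation variants displayed on the E. coli surface, counted by deep sequencing, each peptide's frequency after selection divided by its frequency in the unselected input library; frequency after pTyr selection over input frequency; kinase dosed for 20-30% of maximal phosphorylation in three min.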

Sequence | SH2 binding enrichment [14] | SH2 binding enrichment [15] | SH2 binding enrichment [16] | phosphorylation enrichment [1] | phosphorylation enrichment [2] | phosphorylation enrichment [3] | phosphorylation enrichment [4] | phosphorylation enrichment [5] | phosphorylation enrichment [6] | phosphorylation enrichment [7] | phosphorylation enrichment [8] | phosphorylation enrichment [9] | phosphorylation enrichment [10] | phosphorylation enrichment [11] | phosphorylation enrichment [12] | phosphorylation enrichment [13]
CTTIHYNYMHN [TP53_Y234_C238H] | 0.995 | 1.86 | 0.857 | 0.528 | 0.488 | 0.692 | 0.767 | 0.433 | 0.521 | 0.447 | 0.446 | 0.407 | 0.531 | 0.536 | 0.479 | 0.349
KKFFSYAWPFF [BRDT_Y291_H288Y_YF] | 1.34 | 0.982 | 1.25 | 0.505 | 0.488 | 1.07 | 0.991 | 1.58 | 0.716 | 0.555 | 0.611 | 0.497 | 0.92 | 0.545 | 0.515 | 0.497
FGLQAYTKVKT [ALDH2_Y502_E504K_YF] | 0.744 | 1.38 | 1.65 | 0.763 | 0.476 | 1.12 | 1.23 | 0.447 | 0.877 | 0.546 | 0.799 | 0.513 | 1.33 | 0.644 | 0.472 | 0.442
SVTCTYSPALT [TP53_Y126_N131T] | 0.666 | 0.436 | 0.474 | 0.872 | 0.706 | 1.75 | 1.76 | 0.432 | 0.908 | 0.446 | 1.2 | 0.694 | 1.6 | 0.615 | 0.524 | 0.741
MFNPCYGLFEY [NEDD4L_Y680_Y679C] | 0.867 | 0.641 | 0.633 | 0.739 | 1.6 | 1.26 | 1.32 | 1.69 | 0.752 | 5.24 | 0.842 | 2.54 | 1.11 | 0.604 | 0.616 | 5.01
NACGLYYKLHN [GATA2_Y376] | 0.739 | 0.716 | 0.547 | 1.13 | 0.56 | 1.5 | 1.3 | 2.29 | 1.48 | 0.504 | 0.922 | 1.21 | 2.27 | 0.774 | 1.43 | 1.54
KEDSAYGSQSV [NFKB2_Y868] | 0.817 | 0.558 | 0.756 | 0.502 | 0.409 | 0.978 | 1.07 | 0.454 | 0.584 | 0.535 | 0.911 | 0.583 | 1.11 | 0.521 | 0.428 | 0.502

Now from value to sequence, other results behind:

SH2 binding enrichment [14] | SH2 binding enrichment [15] | SH2 binding enrichment [16] | Sequence | phosphorylation enrichment [1] | phosphorylation enrichment [2] | phosphorylation enrichment [3] | phosphorylation enrichment [4] | phosphorylation enrichment [5] | phosphorylation enrichment [6] | phosphorylation enrichment [7] | phosphorylation enrichment [8] | phosphorylation enrichment [9] | phosphorylation enrichment [10] | phosphorylation enrichment [11] | phosphorylation enrichment [12] | phosphorylation enrichment [13]
0.79 | 0.392 | 0.585 | SRWKLYPRMLR [HAO1_Y50] | 0.478 | 0.341 | 0.81 | 0.619 | 0.447 | 0.482 | 0.405 | 0.524 | 0.415 | 0.873 | 0.442 | 0.394 | 0.442
0.61 | 0.439 | 0.653 | MGIMLYGVDSR [PKD1_Y3143_V3138M] | 0.546 | 0.529 | 0.931 | 1.08 | 0.475 | 0.694 | 0.467 | 0.745 | 0.55 | 1.03 | 0.576 | 0.449 | 0.496
0.926 | 0.515 | 0.701 | FAAAGYGSLEA [EPHA10_Y959] | 0.403 | 0.487 | 0.86 | 0.844 | 0.469 | 0.535 | 0.443 | 0.747 | 0.436 | 0.675 | 0.485 | 0.507 | 1.14
0.849 | 0.679 | 1.16 | DLVRPYVHKIL [SF3B1_Y570] | 0.519 | 0.534 | 0.636 | 0.743 | 0.504 | 0.566 | 0.703 | 0.539 | 0.449 | 0.55 | 0.586 | 0.466 | 0.43
1.1 | 0.631 | 0.92 | TKFRNYLIPKG [CYP2C8_Y379] | 0.374 | 0.345 | 0.47 | 0.565 | 0.374 | 0.425 | 0.365 | 0.573 | 0.429 | 0.592 | 0.421 | 0.381 | 0.443
